Data published in patent US20110224139A1.

T1: Ac-…-CONH2 (RAD16-II) self-assembling peptide, as nanofiber hydrogel
T1 sequence (peptide, N-terminal acetyl (Ac); C-terminal amide (CONH2)): RARADADARARADADA

T2: SDF-1(S4V)-N-terminal peptide (first 8 amino acids of SDF-1(S4V), FRET peptide)
T2 chain: KPVVLSYR

T3: SDF-1-N-terminal peptide (first 8 amino acids of SDF-1, FRET peptide)
T3 chain: KPVSLSYR

B1: Human recombinant MMP-2 (R&D Systems), activated with 4-aminophenylmercuric acetate (protein)
chain: YNFFPRKPKWDKNQITYRIIGYTPDLDPETVDDAFARAFQVWSDVTPLRFSRIHDGEADIMINFGRWEHGDGYPFDGKDGLLAHAFAPGTGVGGDSHFDDDELWTLGEGQVVRVKYGNADGEYCKFPFLFNGKEYNSCTDTGRSDGFLWCSTTYNFEKDGKYGFCPHEALFTMGGNAEGQPCKFPFRFQGTSYDSCTTEGRTDGYRWCGTTEDYDRDKKYGFCPETAMSTVGGNSEGAPCVFPFTFLGNKYESCTSAGRSDGKMWCATTANYDDDRKWGFCPDQGYSLFLVAAHEFGHAMGLEHSQDPGALMAPIYTYTKNFRLSQDDIKGIQELYGASPDIDLGTGPTPTLGPVTPEICKQDIVFDGIAQIRGEIFFFKDRFIWRTVTPRDKPMGPLLVATFWPELPEKIDAVYEAPQEEKAVFFAGNEYWIYSASTLERGYPKPLTSLGLPPDVQRVDAAFNWSKNKKTYIFAGDKFWRYNEVKKKMDPGFPKLIADAWNAIPDNLDAVVDLQGGGHSYFFKGAYYLKLENQSLKSVKFGSIKSDWLGC

Columns and labels:
[1] = biological target: T1, Ac-…-CONH2 (RAD16-II) self-assembling peptide, as nanofiber hydrogel; assay: in vitro binding experiment: release of 100 nM Alexa-488 labeled protein from a nanofiber hydrogel in culture inserts
[2] = biological target: T2, SDF-1(S4V)-N-terminal peptide (first 8 …)
[3] = biological target: T3, SDF-1-N-terminal peptide (first 8 amino …)

Row | Molecule | percent released from the nanofibers over 24 hours [1] [%] | amount of peptide cleaved after 4 hours (FRET peptide cleavage) [2] | initial cleavage rate [2] | amount of peptide cleaved after 4 hours (FRET peptide cleavage) [3] [pmol] | initial cleavage rate [3] | rate of cleavage relative to SDF-1 (times lower), SDS-PAGE (Sumo-SDF-1(S4V)-RAD) | cleavage seen by SDS-PAGE (Sumo-SDF-1-RAD)
1 | Alexa-488 labeled SSDF-1 (from UniProt P48061 22-89) (ligand) | 73 | – | – | – | – | – | –
2 | B1 | – | no significant amount (1±3 pmol) | 0.1±0.1×10^-10M s^-1 | 205 ± 18 | 2.0±0.1×10^-10M s^-1 | the rate of SDF-1(S4V) cleavage is at least 48 times lower than SDF-1 | more Sumo-SDF-1-RAD was cleaved within 1 hour than Sumo-SDF-1(S4V)-RAD in 48 hours
